Data taken from a protein production outcome set (Wang et al. 2014).

Assay: label from the status in PepcDB records
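Note: failed if final PepcDB status was selected cloned or expressed and not failed if soluble or beyond.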

Sequence	protein production
MAEDFSVVVLASDLGIDARPFLTRSDDVDEQENWHDCPQYLGDEDFSDLDLLQFFTLQGLDRSGNRIFRIVGKYFPARVVSAERLKKYISQKISNQCPEGPLCLVYMHSTVQKDDNSPGITILRWIYEDLPSDIKDRLQLVYFIHPGLRSRLVIATLGRLLLSGGLYWKIKYVSRLQYLWEDIKKGEVEIPDFVKNHDNVLEHRPLTDYGIEPDPFQLSEVQSSSFSLNRYENRWVS	failed
MAEEQEIVDSLSAEVNPDQKVDMEVETATPKAETGDEKREREETEEEENGGESKKQKVGEEEKSGPVKLGPKEFVTSVAMFDYFVKFLHFWPTDLDVNKYEHMVLLDLIKKGHSEPEKKIGGGIKTFQVRTHPMWKSRCFFLVREDDTADDFSFRKCVDQILPLPENMKTPGANGNGHGGGRGGGGGRRGGRGGGRGGRFRR	failed
MAEERHHTEHIPQWKKDEIENIKELIQSHKVFGMVRIEGILATKIQKIRRDLKDVAVLKVSRNTLTERALNQLGESIPEMTRYLDNQTALIFTNESPFKLYKLLEQTKTPSPIKAGAIAPEDIIVQKGPTSFPPGPILGELQSAGIPASIDAGKVAVKETKVVCKAGEAVPQKLATMLSKLEIYPLIVGLDLRAAYDDGTIYEPELLAVDESKYFSDIIRAAQNAFNLSVNTAYPTGATIGTLLAKAYAESKSLGVNAVILEPGVMDSLLAKAHVQMTSVASEAAEKDANAVDDDLREVLGAAASAAAAATVAAPAAEEEKKEEEPEEEEEDHAEEDGMAGLGALFGLEHHHHHH	not failed
MAEERRIDWSSLWKKEDWWAFWLGMLLFVLCLATAYGADIMGWVVKSSTWVDVSKAMGPTSKNFAYLGPIGSFVVSWLVLLILTTIGAVAMGWKGGKFAAAFTVIFILTWICWVIGHNAYIAATDPAKAGVPWSLRMTGEAGYIFALILGLIIGNFFKGFANWLKEAAKPEWFIKTAIVLLGAVVGIKAPTIPPEILYNYLFRGLCAIVEAYLIYWALVYWVARRYFGFSREWAAPLASGISICGVSAAIATGGAIRARPVVPVMVASLVIVFAVVELLFLPFLAATFLQHQPLVAGAWMGLAVKTDGAATASVKWLKL	failed
MAEGGGCRERPDAETQKSELGPLMRTTLQRGAQWYLIDSRWFKQWKKYVGFDSWDMYNVGEHNLFPGPIDNSGLFSDPESQTLKEHLIDELDYVLVPTEAWNKLLNWYGCVEGQQPIVRKVVEHGLFVKHCKVEVYLLELKLCENSDPTNVLSCHFSKADTIATIEKEMRKLFNIPAERETRLWNKYMSNTYEQLSKLDNTVQDAGLYQGQVLVIEPQNEDGTWPRQTLQSKSSTAPSRNFTT	failed
MAEITEKVLKKPNAIPDVFERKGGSAPTATHYCAGCGHGIIHKLMAEAIDELEIQDRCVLISPVGCAVFAYYYFDCGNIQVAHGRAPAVGTGVSRAEDNAIVMSYQGDGDLASIGLNETIQAANRGEKMAVFFVNNTVYGMTGGQMAPTTLIGEKTVTCQTGRDPRFAGYPIHMCELLSSLKAPVFIERVSVSDIAHIRKAKRAIKKALEIQRDGKGYAFVEILSPCPTNLRQDANAAQKFINEEMEKEFPLQNFRDRSAEVETLNRGESDFSKECLDNIFEVNSKGAEDPSEDLSFEEKLVKIAGFGGQGVLSMGLTLAEAACRDQKYVSWYPSYGPEQRGGTSNCSVIISGHEIGSPVVYSPGVLIALNKPSLENFAKDVKTGGTIIYDENIGDFEIPNGVTAIKVPASKIATEMGVSRAANTVMLGVLSALGYTGLSESVFVGAIEQTFSKKPKLIPINVEILNAGISWAKENLAL	failed
MAEKTYSGFVAIVGKPNVGKSTLLNNLLGVKVAPISPRPQTTRKRLRGILTEGRRQIVFVDTPGLHKPMDALGEFMDQEVYEALADVNAVVWVVDLRHPPTPEDELVARALKPLVGKVPILLVGNKLDAAKYPEEAMKAYHELLPEAEPRMLSALDERQVAELKADLLALMPEGPFFYPEDYAKSDQTFGEWVAEILREEAMKRLWHEVPYAVATKVEEVAERENGVLYIKAILYVERPSQKAIVIGEGGRKIKEIGQATRKQLEALLGKKVYLDLEVKVYPDWRKDPEALRELGYRSSVG	not failed
MAELFIPDEPIIEVTAVLSAILILVLVLPFKVRIVEENLEAFFFIMGLLGVATIYYYGILPTPDSLIGLFIKAFKTPLAIAHVGPIPIGIVQAVVFFGLVFYFFHKHIYSILASTMEKVGIPVFAFILTFLLGLISSVISVIVTAVILAEIAAALNISRERKVKYVVYASFAVGIGAALTPLGEPLSTIAISKLNAHFTYLIDILGVYIVPGIAVSAVAAAYSLRGEVYREGLVKFVYEESINEILLRGFRVFLFVAALELLGASFTPMVKWYFAQLPSWALYWINTISAVVDNATLTAAEMGPFLTEEQIRSALMSLLISGGMLIPGNIPNIVAAGRLRITMNEWARVGVPFGIALLLAYFIVIEVLDIHITLSF	failed
MAEQEDIILEKPEDGLNQPRLDESLEGFKGQEGQAPEDEEFASLPEELPQENSESGFKFTRESAPEDVSTFEEVESQEPTPWYKDRKFMSLVGLSLGIICILVFTLFYLTFSEGKIKPDIIASKPLEQPVIMPDESYKYNDMQRIDGMIQKANALYLKGEVEQALKVYEQVAVYNESLSNYNLGVSQMNENKFQEAFESFKKAIANGENQSVAAINAAVCALKLNDKEKFRYYIDLAQVYLPKEGKSKLYDYYLSLINYYKGYYPEALQMLQRTDVEPYSDVAKYLSAKIYAKMDFDSKAIQQLNSQGNFESSLSLGLLYARIGEYAKAKVALSTAMKIERDFNQSLAALTLVDIKTGNYQDMLARLQNSYDNDKDRYKILDTYKIQVRLNKDLFNIAVAQNSFSKDLLKKQKDQFDLLFYFAPYQVFDSKQAALYIKKANVTDFVDDSTDAGIYLNISKALSSTNVKIANIINYALNQKLRLANQEFQKLIKDYPEHSILHYNLALTYAQMQNYELAYKHFSSSYHLNPKNYLAGAFAMFCAKLIDIDTTKLYNEILDNIAADSNFKANMQKSMLFLVNNNYISMLPYLDETKKDTPLSLIFEAIVAKNNNLNNQVDVKIAKLRSELPEDILANILYFNSLNSNLNIKEYAQNAQIHFKNLKLDYRSVFGGPNIAREFYVNLMHIAGLLNLERQKFKELINVSGAKDEGILQTLAYLDIFAQQYEEAYALYNSLIDDYGAKDTKTLFLAAVAAVGANNPNSAIALLQLSKLTDKNNKESKAALGMLYQEVKNYEAAISQYKTLPNNFKSEFFTFDINNN	failed
MAERSFSQLPISSSHIGRRTGNTRRGIFPVSEYWIHAIPVIVFLCFFTLWIFSHSVSVMNDGEIMSIHRLEKSMAVRNESHVSLAILASSAVSPASSALVAVVSTNQNLTTFHNATQSQQNATQSVNKAKQPHAV	not failed
MAESLITKKAIAGGLMELCQHKRFEKISIADITNICGLNRQTFYYHFTDKYDLLTWTYENDFFHCLADGITLENWDKHVLKMLESIKENADFYKNTVSADASILSFCFSKLTNSLFMDLFEKIDTNGAVNEADRVFYAEFFSYGCSGVLIKWITRGFKEAPETIANQLFRLAKDTEFLANSMYRENLEHHHHHH	not failed
MAETDPKTVQDLTSVVQTLLQQMQDKFQTMSDQIIGRIDDMSSRIDDLEKNIADLMTQAGVEELESENKIPATQKS	failed
MAETTPKVKGHVVILPYPVQGHLNPMVQFAKRLVSKNVKVTIATTTYTASSITTPSLSVEPISDGFDFIPIGIPGFSVDTYSESFKLNGSETLTLLIEKFKSTDSPIDCLIYDSFLPWGLEVARSMELSAASFFTNNLTVCSVLRKFSNGDFPLPADPNSAPFRIRGLPSLSYDELPSFVGRHWLTHPEHGRVLLNQFPNHENADWLFVNGFEGLEETQDCENGESDAMKATLIGPMIPSAYLDDRMEDDKDYGASLLKPISKECMEWLETKQAQSVAFVSFGSFGILFEKQLAEVAIALQESDLNFLWVIKEAHIAKLPEGFVESTKDRALLVSWCNQLEVLAHESIGCFLTHCGWNSTLEGLSLGVPMVGVPQWSDQMNDAKFVEEVWKVGYRAKEEAGEVIVKSEELVRCLKGVMEGESSVKIRESSKKWKDLAVKAMSEGGSSDRSINEFIESLGK	failed
MAFAPRYSSLIPCALALAASLAGTPDGARAQAPDGPKHPLEKPLAHPPAPPEKLPRVPTDRTKGLDFLFGALKAAPDETSAKHVEGRIWALWSQTTSDTTALLMARSKVAMDAKQFDVALKLLDAVVKLKPDYVEGWNRRATIYYLQNDYMHSLEDIEQVLAREPRHFGALAGLGMIMQELGDDKRALDAFRRALALNPHLDKVPDLVKTLSEKVEGRDI	failed
MAFAYPKLSEPDTKGEYADGKYKTEGTATEDYTERFQEEIQKVADDNFPGKKNVHLPWKETKEGDIAFIFKNPKKKPILTDSRGKPLKEGTVIRGGSKIRIAGVIAAWEKGAKRGVSLWPDAVRVIKLSEGLEHHHHHH	failed
